# According to patent publication US20190177434A1:
# B1: IgG-Fc-11 (VHH)
# VHH: QVQLQESGGGLVQAGGSLRLSCAVSGRTFSTYAMGWFRQAPGKEREFVGSANWKSGSTYLVDSVKGRFTISGDNAHDTVHLQMTSLKPEDTGVYFCVARSFGTGQWDYWGQGTQVTVSS
# B2: IgG-Fc-12 (VHH)
# VHH: QVQLQESGGGLVQAGGSLRLSCAVSGRTFSTYAMGWFRQAPGKEREFVGSINFKSGSIYLADSVKGRFTISGDNAQNTAYLQMTSLKPEDTAVYLCVARSFGTGQWDYWGQGTQVTVSS
# B3: IgG-Fc-14 (VHH)
# VHH: QVQLQESGGGLVQTGGSLRLSCSASGGTFETYAMGWFRQAPGKEREFVGSTNWKSERTYVADSVKGRFTISRDNGQYTAYLQMTSLKPEDTAVYFCVARSFGTGQWDYWGQGTQVTVSS
# B4: IgG-Fc-15 (VHH)
# VHH: QVQLQESGGGLVQAGGSLRLSCAVSGRGFSTYAMGWFRQAPGKEREFVGSANWKSGSIYVADSVKGRFTISNDNAQNTVYLQMSSLKPEDTAVYYCVARSFGTGQWDYWGQGTQVTVSS
# B5: IgG-Fc-13 (VHH)
# VHH: QVQLQESGGGLVQAGGSLRLSCAASGDTFSTYAMGWFRQAPGKEREFVGRIVRGTESTYLIDSVKGRFAISRDNAQNTVYLQMTSLKPEDTAVYFCVARSFGAGQWDYWGQGTQVTVSS
# Biological target: Human IgG, Fc fragment (human)
# Experiment: method not given
row,Binder,Ka
1,B1,> 4e+09 M⁻¹
2,B2,> 4e+09 M⁻¹
3,B3,> 4e+09 M⁻¹
4,B4,> 4e+09 M⁻¹
5,B5,> 4e+09 M⁻¹
